Here are results for seven compounds from PMC4960888, “Gd-nanoparticles functionalization with specific peptides for ß-amyloid plaques targeting” (Journal of Nanobiotechnology, 2016).

One data set deals with V30M-TTR fibrils. Put plainly: SPR binding to V30M-TTR fibrils. Further details: species or system human. The following applies: 800 R.U. V30M-TTR fibrils, 0.02–6.4 mM in peptide, R.U. 141 s after end of injection. An excerpt:
N-(3-Dimethylaminopropyl)-N′-ethylcarbodiimide hydrochloride (EDC, >98.0 %), N-hydroxysuccinimide (NHS, >97.0 %), gadolinium chloride hexahydrate ([GdCl3·6H2O], 99 %), sodium hydroxide (NaOH, 99.99 %), hydrochloric acid (HCl, 36.5–38 %), sodium chloride (NaCl, >99.5 %), dimethyl sulfoxide (DMSO, >99.5 %), acetonitrile (CH3CN, >99.9 %), trifluoroacetic acid (TFA, >99 %), trinitrobenzene sulfonic acid (TNBS) 1 M in water, sodium dodecyl sulfate (SDS, >99 %), (3-aminopropyl)triethoxysilane (APTES, >98 %), tetraethyl orthosilicate (TEOS; >98 %) and Poly(ethylene glycol) bis(carboxymethyl) ether (PEG) with an average molecular weight Mn = 250 g mol^−1 were purchased from Aldrich Chemical (France) and used without further purification. Diethylene glycol (DEG, 99 %) was purchased from SDS Carlo Erba (France). Acetone (reagent grade) was purchased from Sodipro (France) and was used as received. […] Recombinant human V30M-TTR protein was obtained following cloning its gene in the plasmid pQE81L and its expression in Escherichia coli (M15). Briefly, bacterial cultures were performed in LB medium, 100 µg mL^−1 ampicillin and 25 µg mL^−1 kanamycin, at 37 °C, under constant orbital shaking. Protein production was pursued for 7 h after IPTG induction when the absorbance was 0.700 at 600 nm. The bacterial pellet of 50 mL of culture was resuspended in sodium phosphate 50 mM, pH 8, sodium chloride 300 mM, imidazole 10 mM, betamercaptoethanol 10 mM, supplemented with 500 µL of a protease inhibitor, phenylmethylsulfonyl fluoride (Sigma, #78830), at 1 mM final and a cocktail of protease inhibitor EDTA-free (Roche, #11873580001). The suspension was sonicated during a total time of 6 min with repeated cycles of 5/7 s off with an amplitude of 20 %, then centrifuged during 30 min at 100,000g, to pellet cellular debris. The supernatant was filtered on 0.2 µm cut off filters. The purification of the protein was performed on immobilized metal ion chromatography (Chelating Fast Flow, Amersham #17057501), and dialyzed against 20 mM·NH4HCO3 (membrane cutoff 1/10,000; 3500 MWCO Spectrapore). Finally, the protein was freeze-dried. The protein quality was checked by SDS PAGE gel 15 %. The Pittsburgh compound-B (PIB) derivative molecule was synthetized according to the procedure already described in the literature. Starting from the p-anisidine, the p-nitrobenzoyl amide was readily obtained and then the corresponding thioamide was prepared by reaction with Lawesson’s reagent. Finally, an oxidative cyclization was done to lead to the benzothiazole derivative, and the nitro function was reduced to give compound (Synthesis’ details in Additional file 1). […]
(In SPR one partner is held on a chip, and binding of the other changes the refractive index at the surface.)

For data set [1], the system named is Aβ amyloid plaques (APPswe/PS1A246E/TTR(−/−) transgenic mouse brain sections). Put plainly: Immunohistochemistry on AD mouse brain sections with amyloid plaques. The following applies: 10 months old APPswe/PS1A246E/TTR(−/−) hippocampus, nanoparticles at 3 nM Cy5.5 (2 mM Gd^3+) with 3 mM ungrafted nanoparticles, or PIB 1 µM, 1h30 RT, fluorescence.
In another data set the test system is amyloid fibrils. The following applies: cited from earlier work. An excerpt:
Currently, magnetic resonance imaging (MRI) is the preferred neuroimaging examination for AD as it allows an accurate measurement of brain structures’ volume, although a decrease of this latter appears to be a nonspecific and late feature of cerebral vascular diseases’ progression. Thus, studies are under way to develop specific imaging markers for different types of dementia, including markers of senile plaques for very-high-field MRI and positron emission tomography (PET). A better characterization of the amyloid plaque presence and load in the brain can be also expected from i ...

Data set [2] is described as follows: Relaxivity measurements (60 MHz, 37 °C). It is filed as physicochemical. The following applies: 60 MHz (1.4 T), Bruker minispec mq60, Gd^3+ concentration by ICP-OES. Here is the method: Relaxivity measurements were performed on a Bruker® minispec mq60NMR analyzer (Brucker, USA) at 37 °C at 1.4 T (60 MHz). Samples were measured at a specific Gd^3+ concentration (mM), calculated from ICP-OES. The longitudinal relaxation time T1 and the transverse relaxation time T2 (s) were measured at 60 MHz and at 37 °C. Then the relaxivities ri (s^−1 mM^−1) were obtained according to the following formula: 1/Timeasured=1/Tiwater+riGd^3+ where i = 1 or 2.

Data set [3] is described as follows: Dynamic light scattering, hydrodynamic diameter. It is filed as physicochemical. The following applies: DLS, Zetasizer NanoS, 532 nm, 10 mM Gd^3+, 0.2 µm filtered; measurement repeated 8 times. The procedure: Hydrodynamic diameters (DH) of the Nps were determined with a Zetasizer NanoS (laser He–Ne 532 nm) from Malvern Instrument® (5 mW, with 173° NIBS detector and narrow band filter). Attenuator was optimized by the device and position was set to the center of the cell. To perform the measurement, 1 mL of nanoparticles suspensions at 10 mM Gd^3+ was poured in a 12 mm square polystyrene disposable cuvette after filtration on a 0.2 µm cut-off nylon filter. Each measurement was repeated 8 times.

The next data set has as its system SH-SY5Y. The data set can be described thus: MTT cell viability.
A further data set relates to fibrils. Put plainly: Cy5.5 staining of fibrils in vitro (personal data). The data set is classed as binding. The following applies: in vitro on fibrils (personal data).
Data set [4] has as its system Aβ amyloid plaques (APPswe/PS1A246E/TTR(−/−) transgenic mouse brain sections). The following applies: cited from earlier work. The procedure:
The specificity of functionalized nanoparticles binding was verified, by incubating nanoparticles without grafted-peptides, AGuIX@PEG@Cy5.5, on brain section containing amyloid burden. […] Whereas, various other cyanine derivative d ...

Data set [5] addresses T1, Aβ(1–42) fibrils (Homo sapiens, UniProt P05067).
T1 construct: Freeze-dried Aβ(1–42) peptide (Genecust) was dissolved in distilled water at pH 11.0; purchased Genecust (Luxembourg)
Put plainly: Partition (spectrofluorometric) binding to Aβ(1–42) fibrils. The following applies: 20 µM fibrils, 2 µM nanoparticles, saturated with 3 mM AGuIX, 60 min; data not shown.

Data set [6] deals with T1, Aβ(1–42) fibrils. The data set can be described thus: SPR binding to Aβ(1–42) fibrils.
Description: The surface plasmon resonance assays were performed using a BIAcore® 2000 biosensor. The instrument was equipped with a CM3 sensor chip (GE Healthcare®, Uppsala, Sweden). The interaction studies took place on a gold chip functionalized with carboxymethylated dextran. The sensor surface itself form one wall of a flow cell, which is an integral part of the microfluidic system. All SPR experiments were performed at 25 °C. HEPES buffer (HBS-P, GE Healthcare®, 0.01 M HEPES, 0.15 M NaCl, 0.005 % surfactant p20) was used as running buffer.
For immobilization, amine coupling reagents were obtained from the GE Healthcare® kit containing 0.2 M EDC in water, 0.05 M NHS in water and ethanolamine-HCl pH 8.5. […] Aβ(1–42) and V30M-TTR fibrils were immobilized on the flow cell 2 and 4 respectively of a CM3 sensor chip with an amine coupling reaction. After the chip activation by EDC/NHS during 7 min, the fibrils were injected at: 10 µM in 10 mM sodium acetate pH 4 at a flow rate of 5 µL min^−1 during 20 min for Aβ(1–42) fibrils or at 0.36 µM in 10 mM sodium acetate pH 5.5 at a flow rate of 5 µL min^−1 during 100 min for V30M-TTR fibrils. […]
Biacore® experiments gathered data from 3 cycles for each studied analyte. […] Results of the interaction between the analytes and the Aβ(1–42) or V30M-TTR fibrils were represented on a sensorgram expressed as respectively FC2-1 or FC4-3 (RU-RUdextran) versus time. […]

“Also recorded” adds a separate entry of the source.

T1 sequence (P05067 672-713): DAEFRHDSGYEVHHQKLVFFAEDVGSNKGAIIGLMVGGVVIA
Description for SH-SY5Y: The innocuousness of the grafted Nps was assessed using a neuronal cell line SH-SY5Y. The cell viability was assessed using the 3-(4,5-dimethylthiazol-2yl)-2,5-diphenyltetrazolium bromide (MTT) assay^63. SH-SY5Y cells were cultured in DMEM/F12 medium supplemented with 10 % fetal bovine serum and 1 % penicillin -streptomycin /amphotericin B. For the assay, the cells were plated at a density of 50 000 cells/well in 200 µl of medium. […] Nps were added to the cells and incubated at 37 °C, 5 % CO2. One hour later, 10 μL of MTT solutions (12 mM) was added into each well, and the plates were incubated for another 2 h at 37°C, 5% CO2. The culture medium was removed, and the precipitated cells were lysed using DMSO. After 10 minutes, the purple crystals were dissolved completely; the cell viability was calculated from the absorbance signals measured by a plate reader (Tecan Infinite M200) at 540 nm. The absorbance of the wells containing medium-only, corresponding to the background, were subtracted from the value of each reading. Data are expressed in % of cell viability, each MTT analysis was carried out on triplicate samples.

Turning to KLVFF [AGuIX@PEG@KLVFF@Cy5.5], the “interaction with V30M-TTR fibrils” value in the data set with V30M-TTR fibrils was “no specific interaction”; in the data set with V30M-TTR fibrils (listed as KLVFF-grafted) it was “did not interact with V30M-TTR fibrils”. Further, the “binding/staining of amyloid plaques in AD mouse brain sections” value (“binding/staining of amyloid plaques” for short) in [1] is “beta-amyloid plaques were visualized; also recorded: bind selectively amyloid plaque constituted by Aβ protein”; in data set [1] (listed as KLVFF-grafted), “recognized and bound the Aβ amyloid plaque localized in the mouse hippocampus”.
As for `CNc1ccc(-c2nc3ccc(O)cc3s2)cc1` [Pittsburgh compound B, [^11C]2-(4′-methylaminophenyl)-6-hydroxybenzothiazole], the “binding to amyloid fibrils” value with amyloid fibrils is “binds with high affinity to any amyloid fibrils”.
Turning to LPFFD [AGuIX@PEG@LPFFD], the “r1 (longitudinal relaxivity)” value in data set [2] was 13.2 s⁻¹ mM⁻¹. The hydrodynamic diameter in [3] worked out at 3.2 ± 0.8 nm. Further, in the data set on SH-SY5Y (1 h at 37 °C, 5 % CO2, up to 2 mM nanoparticles, MTT 2 h, 540 nm, triplicate), the “cells alive (Fig. S7)” value is “more than 80%”.
For the compound KLVFF [AGuIX@PEG@KLVFF], in data set [2], the “r1 (longitudinal relaxivity)” value worked out at 14.1 s⁻¹ mM⁻¹. Besides, the hydrodynamic diameter in data set [3] came to 3.5 ± 0.9 nm.
For Cy5.5 [reference compound], the “binding/staining of amyloid plaques” value in [1] is “non-binding of Cy5.5 dye to amyloid plaque; also recorded: background due to the Cy5.5 restricted to blood vessels”. Also, the “staining of fibrils by Cy5.5 molecule” value in the data set on fibrils was “does not stain fibrils”. Also, the “staining by Cy5.5 on brain section of AD mouse model” value in data set [4] is “does not stain fibrils”.
With `CNC[C@H](O)[C@@H](O)[C@H](O)[C@H](O)CO.O=C([O-])CN1CCN(CC(=O)[O-])CCN(CC(=O)O)CCN(CC(=O)[O-])CC1.[Gd+3]` [DOTAREM®, reference compound], the “r1 (longitudinal relaxivity)” value in data set [2] was 3.4 s⁻¹ mM⁻¹.
On to LPFFD [AGuIX@PEG@LPFFD@Cy5.5], for which, in the data set with Aβ(1–42) fibrils [5], the “Cy5.5 fluorescence associated with fibrils” value is reported as “no fluorescence has been detected associated with fibrils”. Also, the “interaction (R.U. remaining 141 s after end of injection)” value at Aβ(1–42) fibrils [6] (2.5 mM in Gd^3+) was “interact with Aβ(1–42) fibrils”. Besides, the “interaction over nanoparticle concentration range” value at Aβ(1–42) fibrils [6] (0.02–6.4 mM in peptide, R.U. 141 s after end of injection) is reported as “displayed an interaction on Aβ(1–42) fibrils (blue curves) dependent on nanoparticle concentrations injected”. Besides, the entries for the “interaction with V30M-TTR fibrils” value in the data set with V30M-TTR fibrils and in the data set on V30M-TTR fibrils (listed as LPFFD-grafted) were “no specific interaction” and “did not interact with V30M-TTR fibrils”, respectively. The “binding/staining of amyloid plaques” value in data set [1] is “beta-amyloid plaques were visualized; also recorded: bind selectively amyloid plaque constituted by Aβ protein”; in [1] (listed as LPFFD-grafted), “recognized and bound the Aβ amyloid plaque localized in the mouse hippocampus”. The cells alive result with SH-SY5Y (5 mM Gd^3+, MTT) is given as “more than 75%”; in the data set with SH-SY5Y (1 h incubation, 0.5 to 2 mM Gd^3+, MTT), “more than 80%”. The “toxic effects on cells” value with SH-SY5Y (MTT, up to 5 mM Gd^3+) was “do not exhibit any toxic effects on cells”.
